A word on the tissue uptake: it is the percentage of the injected dose found per gram of tissue.

Results on two compounds are retold here after paper PMC7008241, “Radiolabeled Cationic Peptides for Targeted Imaging of Infection” (Contrast Media & Molecular Imaging, 2019).

Data set [1] is described as follows: in vivo. On the set-up: species or system mice. The settings on record: mouse, iv, total radioactivity. How it is done:
(§1) All animal experiments were performed according to animal use protocols approved by the University of Alabama at Birmingham Institutional Animal Care and Use Committee (IACUC). Animals were housed under controlled conditions with a natural light-dark cycle. They were allowed to adapt to the housing environment for at least 48 h prior to study. Biodistribution and PET imaging studies with ^64Cu-HLys-DOTA and ^64Cu-AB1-HLys-DOTA were conducted in mice intramuscularly (IM) infected in the thigh muscle with SA and PBS as a control. Thirty-six male mice (25–30 g, 4–5 weeks old) infected with SA were used for animal studies. For each peptide, 4 mice were used for small animal PET imaging at 1, 4, and 24 h, and then sacrificed at 24 h for a post-PET biodistribution. Another set of 4 mice each was used for biodistribution studies at 1 and 4 h. A similar set of mice was used for blocking studies with ^64Cu-AB1-HLys-DOTA peptide. In order to check the specificity of ^64Cu-AB1-HLys-DOTA for Gram-positive bacteria, imaging and post-PET biodistribution studies were conducted in another set of mice (four) intramuscularly (IM) infected in the thigh muscle with PA and PBS.
(§2) Mice for infection studies were anesthetized prior to the intramuscular infection of SA or PA. Animals were immobilized with isoflurane. Bacteria cells concentrated in sterile PBS were injected into the thigh muscle and the site of injection pinched to minimize bleeding. SA or PA suspension (50 μL, 2.6–2.8 × 10^7 CFU per mouse) was intramuscularly injected into the right thigh muscle, and sterile PBS (50 μL) was injected into the left thigh muscle as control. Mice were placed back into the cages and allowed to recover with frequent monitoring to identify any sign of extreme distress. The infection was allowed to develop for 3–5 days before intravenous injection of the radiolabeled probe. The muscles on the left and right thighs were harvested, homogenized, and plated on mannitol agar plates or cultured in LB broth to verify the presence of infection. In addition, [^18F]FDG imaging was also performed in infected animal models as described in the PET imaging section below to further confirm the existence of infection in the right thigh and the absence thereof in the left thigh.
For biodistribution studies, 3.3–3.7 MBq (90–100 μCi) of ^64Cu-HLys-DOTA or ^64Cu-AB1-HLys-DOTA was injected into prewarmed tail vein of the animals under anesthesia. Animals were euthanized at 1 and 4 h after radiotracer administration (n = 4 for each tracer at each time point). At 24 h after small animal PET imaging, the mice were also euthanized for a post-PET biodistribution. In a similar set of experiment, excess of the unlabeled peptide, 150 nmol, was coinjected with the radiolabeled peptides per mouse. The organs of interest were collected, weighed, and measured for radioactivity content using a gamma counter. The data were background-corrected and decay-corrected. The biodistribution data were expressed as percentage of injected radioactive dose per gram of tissue (%ID/g) for selected organs as the mean value of four mice.

For data set [2], the system named is Staphylococcus aureus (SA), ATCC 6538. Put plainly: Bacterial cell uptake of 64Cu-labeled peptides in Staphylococcus aureus. It is filed as cell-based. The settings on record: SA 0.9–1.3 × 10^7 CFU/mL in PBS pH 7.4, 37°C, 24 h, 0.925–0.999 MBq, gamma counter, triplicates, mean ± SD. The text has this:
(§3) All solvents and reagents were obtained from Sigma-Aldrich Company unless otherwise specified. […] Diethylenetriaminepentaacetic acid (DTPA) was purchased from Sigma (St. Louis, MO). 1,4,7,10-Tetraazacyclododecane-1,4,7,10-tetraacetic acid mono-N-hydroxysuccinimide ester (DOTA-NHS-ester) was purchased from Macrocyclics (Dallas, Texas). C18 SepPak cartridges were obtained from Waters Corporation (Milford. MA). Radiometric instant thin-layer chromatography measurements were accomplished using a TLC scanner (Bioscan AR-2000 Scanner). Reverse-phase chromatography analysis was performed on a C18 column (PA) with an infinity diode-array UV detector (Agilent, Lake Forest, CA) and a PMT/NaI remote radioactive detector (LabLogic Systems Ltd, Brandon, FL). Laura radiochromatography software (LabLogic Systems Ltd, Brandon, FL) was used to quantify chromatograms by integration. Radioactive samples were counted using a 2480 Wizard II automatic gamma counter (PerkinElmer, Downers Grove, IL). Imaging studies were done by using […] (Sofie BioSciences) [CT-80 Kvp, 5 min (approximately 100 μm), PET-Resolution ≤1 mm]. Acquired PET/CT images were analyzed with InveonTM Research Workplace (IRW) (Siemens). […] At each time point, the mixture was spun down, washed twice with PBS, and the final bacterial pellets were measured using a gamma counter to determine the percent of associated radiolabeled peptide. […]

In data set [3] the test system is Pseudomonas aeruginosa (PA), ATCC 47085. Put plainly: Bacterial cell uptake of 64Cu-labeled peptides in Pseudomonas aeruginosa. Type of data set: cell-based. The settings on record: PA in PBS pH 7.4, 37°C, gamma counter, triplicates, mean ± SD.
Source text: as §3

Data set [4] is described as follows: in vivo. Set-up: species or system mice. The settings on record: mouse, iv, total radioactivity. How it is done: as §1, §2
(§4) Small animal PET/CT imaging studies were conducted in SA-infected and PA-infected animal models. Each radiolabeled peptide, 3.3–3.7 MBq (90–100 μCi), was administrated via tail vein injection of prewarmed mice under anesthesia. The inflammatory response caused by the infection was confirmed by intravenous injection of [^18F]FDG, 3.7 MBq (100 μCi), into mice infected on the right thigh muscle with SA or PA and on the left with PBS as control. For this small animal PET imaging, 1 and 4 h post-injection static scans were collected. Following imaging studies, the mice were sacrificed for biodistribution. Mice were allowed to recover from anesthesia until the time of imaging. Mice were anesthetized with 2‐3% isoflurane/oxygen and imaged on the small animal PET/CT scanner. Static images were collected at 1, 4, and 24 h for 15, 20, and 30 min, respectively. PET images were coregistered with CT image for anatomical colocalization. Regions of interest (ROI) were manually drawn over organs of interest with CT anatomical guidelines, and the associated radioactivity was measured using Inveon Research Workstation software. Standard uptake values (SUV) were calculated as nCi/cc × animal weight/injected dose, and comparisons in pharmacokinetics of radiolabeled peptides were assessed.
This is another data set of the same source.

In data set [5] the test system is Staphylococcus aureus (SA) infected thigh muscle. Briefly: in vivo. Set-up: species or system mice. The settings on record: mouse. How it is done: as §1, §2, §4
[6] abbreviates: male, uptake in the control muscle.
[7] abbreviates: male, mean SUV in the infected muscle.
[8] abbreviates: male, mean SUV of the heart (blood retention).
Where [9] appears, read: male, mean SUV of the heart (dose retention).

“And” between values parts separate entries of the source, which are not always exact repeats. Equal entries are not always repeated. Where a SMILES comes first, the peptide text is derived from it. [ ]: non-standard residue; d: D form. The star is where a group is joined. DOTA = O=C(O)CN1CCN(CC(=O)O)CCN(CC(=O)*)CCN(CC(=O)O)CC1; X1 = CC(=O)c1ccc(OCCC*)cc1B(O)O

As to `CC(C)[C@@H](NC(=O)[C@@H](Cc1c[nH]c2ccccc12)NC(=O)[C@@H](Cc1ccc(O)cc1)NC(=O)[C@@H](CCCNC(=N)N)NC(=O)CN1CCN(CC(=O)O)CCN(CC(=O)O)CCN(CC(=O)O)CC1)C(=O)N[C@H](C)C(=O)N[C@H](Cc1c[nH]c2ccccc12)C(=O)N[C@H](CCCNC(=N)N)C(=O)N[C@H](CC(N)=O)C(=O)N[C@H](CCCNC(=N)N)C(=O)NCC(N)=O` [^64Cu-HLys-DOTA, metal not drawn] ({DOTA}-[dR][dY][dW][dV][dA][dW][dR][dN][dR]G-NH2; N-terminus and C-terminus assumed), in the data set “in vivo [1]” (setting [6]), the tissue uptake at 1 h was 0.6 ± 0.1 %ID/g and the tissue uptake at 4 h was 0.4 ± 0.1 %ID/g. Also, in data set [2], the “bacteria cell uptake (percent of associated radiolabeled peptide)” value is 39.12 ± 3.27% and 39.1 ± 3.3%. Besides, the “binding to PA (cell uptake)” value in data set [3] (5 min after incubation) came out at 1.9 ± 0.4%. In data set [3] (24 h after incubation), the “binding to PA (cell uptake)” value came out at 5.2 ± 0.3%. In addition, in the data set “in vivo [4]” (setting [7]), the SUV at 1 h was determined as 0.17 ± 0.06 SUV, the SUV at 4 h stood at 0.16 ± 0.02 SUV and the SUV at 24 h came out at 0.13 ± 0.01 SUV. In addition, the SUV at 1 h in the data set “in vivo [4]” (setting [8]) turned out to be 0.25 ± 0.05 SUV. Further, the SUV at 24 h in the data set “in vivo [4]” (setting [9]) came to 0.21 ± 0.04 SUV.
For `CC(=O)c1ccc(OCCCSC[C@H](NC(=O)CNC(=O)[C@@H](CCCNC(=N)N)NC(=O)[C@@H](CC(N)=O)NC(=O)[C@@H](CCCNC(=N)N)NC(=O)[C@@H](Cc2c[nH]c3ccccc23)NC(=O)[C@@H](C)NC(=O)[C@H](NC(=O)[C@@H](Cc2c[nH]c3ccccc23)NC(=O)[C@@H](Cc2ccc(O)cc2)NC(=O)[C@@H](CCCNC(=N)N)NC(=O)CN2CCN(CC(=O)O)CCN(CC(=O)O)CCN(CC(=O)O)CC2)C(C)C)C(N)=O)cc1B(O)O` [^64Cu-AB1-HLys-DOTA, metal not drawn] ({DOTA}-[dR][dY][dW][dV][dA][dW][dR][dN][dR]GC(X1)-NH2), in the data set “in vivo [1]” (setting [6]), the tissue uptake at 1 h was 2.5 ± 0.5 %ID/g, the tissue uptake at 4 h was 1.1 ± 0.4 %ID/g and the tissue uptake at 24 h was 0.8 ± 0.1 %ID/g. Further, in the data set “in vivo [1]”, the tissue uptake at 24 h came out at 0.49 ± 0.11 %ID/g. For the same compound, in the data set “in vivo [4]” (setting [7]), the SUV at 1 h is 0.7 ± 0.08 SUV, the SUV at 4 h amounted to 0.49 ± 0.04 SUV and the SUV at 24 h came out at 0.31 ± 0.01 SUV. Besides, the SUV at 1 h in “in vivo [4]” (setting [8]) stood at 0.65 ± 0.08 SUV. The SUV at 24 h in the data set “in vivo [4]” (setting [9]) was 0.26 ± 0.04 SUV. In the data set “in vivo [4]”, the SUV at 1 h came to 0.28 ± 0.1 SUV and the SUV at 4 h is 0.19 ± 0.1 SUV. For the same compound, the “fold increase in accumulation (SUV) vs. ^64Cu-HLys-DOTA at the infection” value in data set [5] is reported as 2.4-4 fold.
